Molecular target: S protein (Spike) of the novel coronavirus SARS-CoV-2 (SARS-CoV-2, UniProt P0DTC2 14-1273)
Assay: cell-based or functional assay

| Binder | IC50, PRNT with SARS-CoV-2 euvirus on Vero E6 cells [µg/mL] | IC50, neutralization of SARS-CoV-2 pseudovirus (Huh-7 cells, luciferase) [µg/mL] |
| --- | --- | --- |
| antigen-binding unit ABU-174 (antibody, V domains shown) VH: QVQLQQWGAGLLKPSETLSLTCAVYGGSFSDYYWNWIRRPPGKGLEWIGEITHSGSTNYNPSLKSRVTISVDTSKNQFSLKLSSVTAADTAVYYCARGQGYGRVLLWFGEWGQGTLVTVSS VL: EIVLTQSPATLSLSPGERATLSCRASQSVSTYLAWYQQKPGQAPRLLIYDASNRATGIPARFSGSGSGTDFTLTISSLEPEDFAVYYCQQRSNWITFGQGTRLEIK | 0.5 | 0.026 |
| antigen-binding unit ABU-190 (antibody, V domains shown) VH: EVQLVESGGGLIQPGGSLRLSCAASGITVSSNYMSWVRQAPGKGLEWVSVIYSGGSTDYADSVKGRFTISRDKSKNTLYLQMNSLRAEDTAVYYCARDLGEAGGMDVWGQGTTVTVSS VL: AIQLTQSPSSLSASVGDRVTITCRASQGISSYLAWYQQKPGKAPKLLIYAASTLQSGVPSRFSGSGSGTDFTLTISSLQPEDFATYYCQQLNSYPPAFGGGTKVEIK | 0.8 | 0.039 |

— US20230174628A1 (PEKING UNIVERSITY, published 2023)
